In the supplement of paper PMC9170038:

System: K4 kissing-loop RNA reporter
Assay: apparent KD of K4 kissing-loop reporter; higher = weaker reporter binding
Settings: Eterna round: R107
Procedure: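 RNA-MaP round R107: designed RNA switches with theophylline, tryptophan, arginine or FMN aptamers are transcribed on-chip within common flanks. They are titrated with a labelled K4 kissing-loop RNA reporter in RNA-MaP buffer (100 mM Tris pH 7.5, 80 mM KCl, 4 mM MgCl2), without ligand or with the indicated ligand. Median apparent KD per design.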

[1] = input ligand: theophylline 20 uM
[2] = input ligand: tryptophan 2.4 mM
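Note: bound reporter read as fluorescence of individual clusters on recovered sequencing chips by microscopy, with normalized cluster intensities fitted with a binding model.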

Sequence	apparent KD of K4 kissing-loop reporter (input ligand: FMN 200 uM)	apparent KD of K4 kissing-loop reporter (input ligand: arginine 13.2 mM)	apparent KD of K4 kissing-loop reporter (input ligand: none)	apparent KD of K4 kissing-loop reporter [1]	apparent KD of K4 kissing-loop reporter [2]
UAUGAAGGUGGAGGAUAUUGAUUGAGCCUUGGUCAGGAGUGAUGUUCCGGGAAGCCUUGGGUUCAUCGAGAAGGCCAAGGAUAGU [#09 K4 FMN B Same State]	151 nM	209 nM	221 nM	274 nM	232 nM
GCGCGUCAUGUCAGCGGAGACACUGUCGAUACCAGCGCCGCAAGGCGCCCUUGGCAGCGACGCGCUGGAGUGAUGUUCCAGCGUG [#2 Exclusion - Theophylline A Attempt #15 (HarryS)]	171 nM	154 nM	148 nM	143 nM	159 nM
GCAUGGGUGCUUGCACAAGUGAUGUUUGGGCGAGGACCGGUACGGCCGCCACUCGUACGUUUAGUUAAAAGACAUCAUGCGAGUC [theeternabot_exclusion_KL_Trp_A_11]	291 nM	246 nM	356 nM	339 nM	164 nM
AGACUACCACACUGUCAAUAGACAGUGAGCUAGGAUAUGCUGAUAAGCAGAAGGAGUGAUGUUCCCAGGUAGUCAAUAAAAUAAU [FmnAX 13 G29+C66]	272 nM	192 nM	231 nM	302 nM	238 nM
GAGGUGCUGAUGCGGUGGCCGGUGGUCGUGCGAGGACCGGUACGGCCGCCACUCGCAUGAGUGAUGUUCAUGUGUCGUCGUCGUC [whbob_EX_Tryp_A_t3]	172 nM	104 nM	132 nM	117 nM	172 nM
AACAUUUUCAGAAGGAGCGUGAAUUAUUCAUAAUUAUAUUAUACGAGUGAUGUUCGUAUUUCACAGGUAGGUCGCUGAUAUAGUA [#02 K4 Arginine B Same State]	94.5 nM	127 nM	104 nM	121 nM	93.1 nM
CUUAUGGCGUUUGGAAGGAGCGGCUCAUCACGAGGACCGGUACGGCCGCCACUCGAGAGAGCAUAAGAAAGUGAUGUUUUCGGUU [theeternabot_sameState_KL_Trp_A_44]	517 nM	415 nM	496 nM	395 nM	314 nM
CCCUCACGAGUGAUGUUCGUAGGGUACAGUCAGGAUAUCAUGCGGUUGAGAAGGGACAGAGAGGGCGGCCACGGGUUGCUCCUCU [Lariusteza]	183 nM	259 nM	386 nM	345 nM	305 nM
AAUCACCGAGCGGCCGCCACUGCACAAAGCGAGUUUAUAGACACGGUACUGGAGUGAUGUUCGAGCAGGACCGGGCUAACUAAGC [theeternabot_sameState_KL_Trp_B_12]	871 nM	610 nM	1190 nM	758 nM	729 nM
CCAGGACGAUGAGGAUGAUGAAUUACUGAAGGAGCGCAUAUGGUUGCAGGUAGGUCGCGGUGAACAAGUAUAGUGAUGUUAUACC [SSArgA.U]	327 nM	282 nM	340 nM	515 nM	348 nM
UGACUGGACUGAAGGAGCGCGCGAGACAAAGUCUCGAACUCUUAGUGAUGUUAAGAAAUAACGCAGGUAGGUCGCAGUCUAGUCU	138 nM	122 nM	147 nM	133 nM	150 nM
CCGUGGAGUGAUGUUCCACGUUCUACGGAUACCAGCUUUGCCAAAGGCCCUUGGCAGCCGCACCUUGCAGUGAUGUUGUGAGGCU [Same State Theophylline A Gf7]	329 nM	268 nM	305 nM	302 nM	274 nM
GGAAUAACCUGGGAUACCAGUCGGAGGACUAGGGAUCGGAGUGAUGUUCUGGGAUGUUUCGGCCCUUGGCAGCUCUGGUUUUCCG [#2 Exclusion - Theophylline B Attempt #1 (HarryS)]	569 nM	286 nM	551 nM	614 nM	443 nM
UUAACCAACAGCGAUACCAGCGUGGAGUGAUGUUCCGAGGAUCGGAGUGAUGUUCCGAAGCGCCCUUGGCAGCGCAGAAGCGCAA [Exclusion Theophylline B GF8]	193 nM	148 nM	241 nM	251 nM	255 nM
UUGGACCUUAGCCUCAAUAGAACUUUGUUACGAGGACCGGUACGGCCGCCACUCGUCGGGCUCCGAUAGCCAGUGAUGUUGGCAA [theeternabot_sameState_KL_Trp_A_16]	429 nM	405 nM	693 nM	1010 nM	212 nM
AGAGAUAAGGCGGCCGCCACUAAGAUGAAACUAACGGUCAAGUGAUGUUUGCGGUUACAGUUCAGUAGGACCGGGCCGAGUAAAU [theeternabot_sameState_KL_Trp_B_47]	512 nM	403 nM	407 nM	412 nM	357 nM
AUUUAAUGUAUAGAUUAUAUACAUAAUUCAGAGGAUAUGCGAAGAAGCAGAAGGCUGGUUGCAGUGAUGUUGCUUUUAUAAUUUA [JR_SSFMNA_Sub009]	32.8 nM	152 nM	85.9 nM	171 nM	59.9 nM
AAUUAAUACAGAAGGAGCGUGAAAUUAUCUACUUUUAACUUAGCGAGUGAUGUUCGUUUUUCACAGGUAGGUCGCUGUAUAUUUA [JR_ExcArginiB_Sub009]	167 nM	214 nM	194 nM	192 nM	152 nM
AUUAAUUUCAGAGGAUAUCGUUAUUUUUUUUAUUUUAUUCAUUUAUGCAGUGAUGUUGCUAUUAUUCGAGAAGGCUGAUUUAUAA [JR_ExcFMNB_Sub005]	97.9 nM	126 nM	62.9 nM	146 nM	74.1 nM
AUGGACUCUUCGGAGUCCGCCUUAAGGGAUACCAGUGAUGUUGGUCACCCUUGGCAGCCUAGAAAGGAAGCCACCAAAGGUGGCA [Omei v1 mod #OpenEnded #Sliding]	105 nM	114 nM	128 nM	160 nM	101 nM
AAACAUCACUGGGAGUGAUGUUCUCAGUGACGAGGACCGGUACGGCCGCCACUCGCGAGAGAUAUAGUCUAGUAAUGACUGCAUU [Excl Tryptophan A V9]	299 nM	274 nM	292 nM	322 nM	391 nM
ACACUAUCGUCAUAGACGGUAGUGAAAUCACAGGAUAUAAGUGAUGUUAGAAGGGUGAAAGACUGUAUCGAAUAGAUACAGUCAA [FmnA 3 #K4BetweenAptamer #OpenEnded]	1140 nM	605 nM	913 nM	861 nM	878 nM
CACUGGGCGAGUGAUGUUCGCUCACGUGAUACCAGUGCCAUCCAACACCCUUGGCAGCAUGCGGGCAGUGAUGUUGUCCAAAGAA [Exclusion Theophylline A GF9]	204 nM	187 nM	207 nM	208 nM	184 nM
UAAAUAAAAUCCUAGUGAUGUUAGGAUAUGUAGGAUAUCGGGAUACCGAGAAGGACAGAAGGAGGAGUGAUGUUCCUCAAUAAAU [FmnAX 30 #DoubleAptamer #DoubleK4 #OpenEnded]	72 nM	72.1 nM	59.3 nM	74.5 nM	59.5 nM
AAUUUAUUAUCUGAUACCAGACUUUAUCUUGUUUAUAAGUCAAGUGAUGUUUGACUAUUAGUCCCUUGGCAGCAGUAUUUUUUAA [JR_Nu_SSTheophyB_Sub025]	251 nM	260 nM	269 nM	187 nM	230 nM
UGUCAUUGGUCUGAUACCAGUCCCUUGGCAGCCUAAAGGAGUGAUGUUCCAAGGAUACCAGACCCUUGGCAGCAGACCGAUGACU [TheoBS 28 #DoubleAptamer #SwitchBubble]	351 nM	312 nM	360 nM	260 nM	354 nM
CGCCGAUUGUCGGAGUGAUGUUCCCGGGAUACCAGCACGUCGUCAUGCCCUUGGCAGCCCAACAGACCAUUUUAAAGGCUAGCUG [theeternabot_sameState_KL_Theo_A_35]	330 nM	97.8 nM	122 nM	221 nM	158 nM
GCUAAGGAGUGAUGUUCCAAGUGAUGUUAACGAGGACCGGUACGGCCGCCACUCGAUACGGCCGGAAAGUAAGAUAAACUACAGU [Same State - Tryptophan A (Freestyle 4)]	77.5 nM	59.8 nM	77.1 nM	75.8 nM	64.7 nM
GUGGUUUACGUAGGAUAUCGAUGAUGAGUAAAUGGAGUGAUGUUCCGAGAUUGAAUAUGAGAUGAGCGAGAAGGGCGGUUUAUGC [FMN B Same State; Euporia Solution 2]	32.8 nM	36.9 nM	31.4 nM	37.3 nM	29.5 nM
UGACUGGACUGAAGGAGCGAGCGAGACAAAGUCUCGAAAAUUCAGUGAUGUUGAUAUAUAACUCAGGUAGGUCGCAGUCUAGUCU [ArgBS 5 #SwitchBubble #StaticStem]	447 nM	433 nM	477 nM	464 nM	431 nM
